Measurements from patent EP4600371A1, “CELL-FREE GLYCOSYLATION OF PEPTIDES AND PROTEINS” (ETH Zurich, priority 2024, dated 2025).

Legend:
TbSTT3A = experiment: Kinetic assay with ssOST enzyme: in vitro glycosylation of acceptor peptide, UPLC readout; format: biochemical, Trypanosoma brucei; conditions: compared to Dol20-PP-GlcNAc2Man5 as donor; 50 nM TbSTT3A, 15 µM LLO, 20 µM 5CF-GSDANYTYTQ, 30°C; Figure 3A
Method: (§1) In vitro glycosylation reactions were performed by mixing 50 nM purified TbSTT3A or 100 nM TbSTT3B protein, 15µM Phy-LLO or Dol20-LLO, 10 mM MnCl2, 150 mM NaCl, 20 mM HEPES pH 7.5, 0.035% DDM, 0.007% CHS and 20 µM of the acceptor peptide (for STT3A: 5CF-GSDANYTYTQ (SEQ ID No 33), for STT3B: 5CF-GSLANYTK (SEQ ID No 34)), and incubating at 30°C. 1 µL samples were taken at different time points and diluted in 10% ACN, 10 mM phosphate buffer pH 7. Samples were analyzed by reverse-phase chromatography using a UPLC Dionex UltiMate 3000 with an Accucore 150-C18 100 × 2.1 mm 2.6 µm column (Thermo Fisher Scientific)40. Peaks for glycopeptide and peptide were integrated using the Software ChromeleonTM, and the amount of produced glycopeptide was determined for each data point. Turnover rate determination was performed by fitting of the data to linear regression using PRISM software.

TbSTT3B = experiment: as above; format: biochemical, Trypanosoma brucei; conditions: for completion of the glycosylation reaction: after an hour of incubation at room temperature, TbSTT3B
Method: as §1, with “and incubating at 30°C.” left out

| Substance | turnover rate of glycosylation (TbSTT3A) | completion of the glycosylation reaction (TbSTT3B) | turnover rate (TbSTT3B; compared to Dol20-PP-GlcNAc2Man9 as substrate, 100 nM TbSTT3B, 15 µM LLO, 20 µM 5CF-GSLANYTK, 30°C, Figure 3B) |
| --- | --- | --- | --- |
| phy-PP-GlcNAc2Man5 | almost identical |  |  |
| Dol20-PP-GlcNAc2Man9 [reference compound] |  | went to completion |  |
| phy-PP-GlcNAc2Man9 |  | went to completion | somewhat slower |
